According to PMC12713436:

Experiments:
[1] = biological target: frutalin (FTL), galactose-specific jacalin-related lectin from Artocarpus altilis (syn. Artocarpus incisa) seeds (Artocarpus altilis (syn. Artocarpus incisa)); assay: SEC; FTL alone on a Superdex column equilibrated in PBS + 50 mM D-galactose; single peak at Ve = 15.57 mL; apparent mass from calibration; oligomer of alpha-beta protomers
[2] = biological target: secretory immunoglobulin A1 (sIgA1) from human colostrum (human (endogenous in colostrum)) (UniProt P01591)
[3] = biological target: secretory immunoglobulin A1 (sIgA1) from human colostrum (human (endogenous in colostrum)) (UniProt P01591); assay: dynamic light scattering; sIgA1 titrated with FTL (0.06–1.94 mg/mL); Z-average diameter against FTL:sIgA1 molar ratio; Hill fit; apparent KD
[4] = biological target: secretory immunoglobulin A1 (sIgA1) from human colostrum (human (endogenous in colostrum)) (UniProt P01591); assay: BLI; Octet RED96; sIgA1 immobilised on AR2G biosensors via amine coupling, FTL as analyte; 25 °C; PBS with 0.02% Tween-20; global fit, 1:2 bivalent analyte model

stoichiometry N [1]: 2 | hemagglutination titer (rabbit erythrocytes) of the preformed FTL–sIgA1 complex at 1 mg/mL, with 0 to 200 mM D-galactose (∼2^8 at 200 mM); free FTL ∼2^17 (∼2^9 at 200 mM galactose); sIgA1 alone ∼2^4 [2]: 65500 HU | stoichiometry N [3]: 1 to 1.5 FTL:sIgA1 | koff [4]: 0.00214 s⁻¹ | kon [4]: 596000 M⁻¹ s⁻¹
Substance: frutalin (FTL), galactose-specific jacalin-related lectin from Artocarpus altilis (syn. Artocarpus incisa) seeds (natural protein)
